Fold decrease in affinity against prototype tau type IA (SEQ ID NO:1) and IC50 data for two substances are collected here from patent US20060167227A1.

The target in test [1] is tau monoclonal antibody (Example 5, FIG. 5). The experiment in a line: competitive ELISA. On the technique in general: ELISA stands for enzyme-linked immunosorbent assay.
The target is the same in test [2]. The experiment in a line: competitive ELISA; printed as apparent affinity = antigen concentration for 50% competition with prototype tau type IA.

In turn, “deletion mutant SEQ ID NO: 21 (268-333,R4;del 239-267) (from UniProt O02828 288-353)” gave a fold decrease in affinity against prototype tau type IA (SEQ ID NO:1) in test [1] of 1000 fold.

In general, IC50 refers to the concentration that inhibits the measured activity by half. As for “prototype tau type IA (SEQ ID NO:1) (239-333,R4) (from UniProt O02828 259-353)”, the IC50 in test [2] was found to be 10 nM.
